In doi:10.1101/2021.06.07.447357:
Read-outs that look alike come from different tables or passages of the source.

Assays:
[1] = biological target: 31 kDa recombinant Tic40s form (Brassica napus); experiment: dynamic light scattering
[2] = biological target: 31 kDa recombinant Tic40s form (Brassica napus); experiment: dynamic light scattering; remark: listed apart in the source
[3] = biological target: Recombinant Tic40s with a carboxyl-terminal histidine tag (40 kDa form) (Brassica napus); experiment: AUC
[4] = biological target: Recombinant Tic40s with a carboxyl-terminal histidine tag (40 kDa form) (Brassica napus); experiment: AUC; remark: listed apart in the source

Substance | stoichiometry N [1] | stoichiometry N [2] | stoichiometry N [3] | stoichiometry N [4]
31 kDa recombinant Tic40s form (domain or fragment) | 2 | 4 | – | –
Recombinant Tic40s with a carboxyl-terminal histidine tag (40 kDa form) (domain or fragment) | – | – | 4 | 3
